Reference: US20200071378A1

Tests used:
[1] = biological target: hOX40-His (human) (UniProt P43489); experiment: SPR (BioRad ProteOn XPR 360) per Example 5; FIG. 5 legend says biolayer interferometry (Octet); hOX40-His as ligand, analyte at 66.7 nM
[2] = biological target: murine OX40 expressed on cells (CHOK1-mOX40) (murine) (UniProt P47741); experiment: flow cytometry on CHOK1-mOX40 cells
[3] = biological target: murine VISTA expressed on EL4 cells (EL4-mVISTA) (murine) (UniProt Q9D659); experiment: flow cytometry on EL4-mVISTA cells
Chain of murine VISTA expressed on EL4 cells (EL4-mVISTA) (murine) (Q9D659 33-308): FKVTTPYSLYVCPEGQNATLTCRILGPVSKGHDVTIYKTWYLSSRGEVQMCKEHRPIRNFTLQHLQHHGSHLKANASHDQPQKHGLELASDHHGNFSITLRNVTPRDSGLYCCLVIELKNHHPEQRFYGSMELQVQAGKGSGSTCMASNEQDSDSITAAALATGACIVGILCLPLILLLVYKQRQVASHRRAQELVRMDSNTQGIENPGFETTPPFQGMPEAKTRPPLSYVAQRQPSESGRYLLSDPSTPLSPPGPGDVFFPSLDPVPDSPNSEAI

Chain of hOX40-His (human) (P43489 29-216 limits assumed): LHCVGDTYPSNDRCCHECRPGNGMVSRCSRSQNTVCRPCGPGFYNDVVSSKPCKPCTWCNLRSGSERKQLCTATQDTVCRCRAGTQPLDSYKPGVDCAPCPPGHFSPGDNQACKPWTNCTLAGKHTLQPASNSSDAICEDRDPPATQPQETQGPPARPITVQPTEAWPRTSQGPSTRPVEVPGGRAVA
Chain of murine OX40 expressed on cells (CHOK1-mOX40) (murine) (P47741 20-272): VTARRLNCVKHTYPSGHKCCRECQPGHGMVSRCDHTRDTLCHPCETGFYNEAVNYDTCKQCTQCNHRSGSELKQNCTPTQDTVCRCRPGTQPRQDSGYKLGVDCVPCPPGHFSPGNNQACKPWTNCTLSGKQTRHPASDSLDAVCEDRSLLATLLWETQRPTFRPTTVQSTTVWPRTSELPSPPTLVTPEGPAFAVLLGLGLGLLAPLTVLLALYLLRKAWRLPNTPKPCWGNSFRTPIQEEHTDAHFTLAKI

With “tavolixumab (an anti-human OX40 antibody)” the Kd [1] was 0.152 nM, the koff [1] was 5.03e-05 s⁻¹ and the kon [1] was 332000 M⁻¹ s⁻¹.

For “murine VSIG8-Fc-OX40L chimeric protein (from UniProt Q6P3A4 22-262; P43488 51-198) (Fc fusion)”, the EC50 [2] was 16 nM and the EC50 [3] was 56 nM.
